This note sets out measurements from patent publication US20060172941A1 (published 2006).

The IC50 is the concentration at which inhibition is half-maximal. A lower IC50 goes with greater potency.

This assay has as its target VEGF receptor on endothelial cells. Put plainly: inhibition of radiolabeled VEGF binding to its receptor on endothelial cells; peptide concentration varied.

Sequence of VEGF receptor on endothelial cells (chain, as listed by the source): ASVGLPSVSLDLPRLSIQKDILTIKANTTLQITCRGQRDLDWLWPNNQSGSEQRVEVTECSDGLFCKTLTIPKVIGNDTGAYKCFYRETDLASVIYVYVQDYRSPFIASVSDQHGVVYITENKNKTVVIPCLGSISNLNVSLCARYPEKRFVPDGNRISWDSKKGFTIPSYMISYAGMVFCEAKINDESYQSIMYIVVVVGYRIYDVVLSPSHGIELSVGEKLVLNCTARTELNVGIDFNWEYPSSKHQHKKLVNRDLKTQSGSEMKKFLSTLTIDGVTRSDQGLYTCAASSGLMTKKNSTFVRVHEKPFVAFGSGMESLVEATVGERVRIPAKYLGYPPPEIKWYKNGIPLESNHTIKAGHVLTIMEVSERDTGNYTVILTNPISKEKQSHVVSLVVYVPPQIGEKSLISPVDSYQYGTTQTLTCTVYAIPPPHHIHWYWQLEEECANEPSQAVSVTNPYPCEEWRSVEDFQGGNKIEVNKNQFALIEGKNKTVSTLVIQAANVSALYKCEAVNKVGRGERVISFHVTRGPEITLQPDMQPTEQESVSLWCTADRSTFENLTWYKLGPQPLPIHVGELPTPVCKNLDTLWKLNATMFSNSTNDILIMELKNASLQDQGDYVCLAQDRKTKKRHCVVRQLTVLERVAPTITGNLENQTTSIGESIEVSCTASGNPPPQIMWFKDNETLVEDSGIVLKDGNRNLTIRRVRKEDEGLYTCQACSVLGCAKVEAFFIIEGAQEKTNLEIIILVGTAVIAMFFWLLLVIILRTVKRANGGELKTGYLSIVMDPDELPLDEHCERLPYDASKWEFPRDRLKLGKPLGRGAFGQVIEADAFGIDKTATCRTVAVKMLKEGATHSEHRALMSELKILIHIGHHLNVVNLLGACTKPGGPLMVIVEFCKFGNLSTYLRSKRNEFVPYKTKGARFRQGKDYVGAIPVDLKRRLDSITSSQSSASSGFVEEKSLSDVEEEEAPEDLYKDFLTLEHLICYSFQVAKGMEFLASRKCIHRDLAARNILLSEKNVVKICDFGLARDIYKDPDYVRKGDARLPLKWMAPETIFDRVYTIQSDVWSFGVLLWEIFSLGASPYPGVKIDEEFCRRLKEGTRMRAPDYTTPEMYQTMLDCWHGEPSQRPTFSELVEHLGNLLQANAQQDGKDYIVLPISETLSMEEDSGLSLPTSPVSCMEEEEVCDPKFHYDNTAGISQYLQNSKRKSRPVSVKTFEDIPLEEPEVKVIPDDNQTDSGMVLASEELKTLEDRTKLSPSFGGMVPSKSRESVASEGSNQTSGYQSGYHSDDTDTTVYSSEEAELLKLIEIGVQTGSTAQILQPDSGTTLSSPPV

On to YDGRGDSVVYGLKKKAARGRRAARGRR [ST100,032], for which the IC50 was 430 nM.

Regarding PYAGRGDSVVYGLGGGPGAARGRRAARGRR [ST100,033], the IC50 was found to be 1100 nM.
